Assay results: paper PMC7367192

Assays:
[1] = target: eGFP full-length vWF dimer (UniProt P04275); assay: EMSA; settings: fixed dimer 0.47 mg/ml, DNA titrated; MST: PBS (162 mM ionic strength), optionally +150 mM NaCl; EMSA: 0.5x TA (20 mM ionic strength), +10 or +40 mM NaCl; FCS after shear at 2000-4000 s-1; pH and …
[2] = target: vWF A1 domain R1392A/R1395A/R1399A (UniProt P04275); assay: MST; settings: MST: PBS (162 mM ionic strength), optionally +150 mM NaCl; EMSA: 0.5x TA (20 mM ionic strength), +10 or +40 mM NaCl; FCS after shear at 2000-4000 s-1; pH and …
vWF A1 domain = vWF A1 domain (UniProt P04275); assay: MST; settings: MST: PBS (162 mM ionic strength), optionally +150 mM NaCl; EMSA: 0.5x TA (20 mM ionic strength), +10 or +40 mM NaCl; FCS after shear at 2000-4000 s-1; pH and …
wt vWF multimer = wt vWF multimer (UniProt P04275); assay: FCS; settings: MST: PBS (162 mM ionic strength), optionally +150 mM NaCl, EMSA: 0.5x TA (20 mM ionic strength), +10 or +40 mM NaCl, FCS after shear at 2000-4000 s-1, pH and …

Sequence | Kd [1] [µM] | Kd [2] [µM] | Kd (vWF A1 domain) [µM] | binding signal (wt vWF multimer; shear 4000 s-1) [% bound] | binding signal (wt vWF multimer; shear, 2000 s-1?) [% bound]
GGCGTGCAGTGCCTTCGGCCGTGCGGTGCCTCCGTCACGCCTAAAATAAAA [ARC1172 ss DNA] | 0.001 | 130 | 10 |  | 
CATAAATCTTTGAATACCAAGTGTTAGAACCATCAACCATATCAACTTCCTTTATACATCTA / CTACATCACTTTCTTCATTATAAAATAAAAGGAAGTTGATATGGTTGATG [23 bp ds DNA] |  | 30 | 13 | 23 | 21
